Measured values as given in PMC3660597, “Investigation of Specificity Determinants in Bacterial tRNA-Guanine Transglycosylase Reveals Queuine, the Substrate of Its Eucaryotic Counterpart, as Inhibitor” (PLoS ONE, 2013).

What was measured:
[1] = substrate: NCc1c[nH]c2nc(N)[nH]c(=O)c12; test: [3H]-preQ1 incorporation into tRNA(Tyr), scintillation counting; assay type: biochemical, Zymomonas mobilis; conditions: 15 µM E. coli tRNA(Tyr), 200 mM HEPES pH 7.3, 20 mM MgCl2, 37°C, labelled compound
Description: [3H]-preQ1 incorporation into tRNA(Tyr), scintillation counting on Z. mobilis Tgt ("wild type" Tgt = Tgt(Tyr106Phe))

[2] = substrate: Nc1nc2nc[nH]c2c(=O)[nH]1; test: purified protein; assay type: biochemical, Zymomonas mobilis; conditions: 15 µM E. coli tRNA(Tyr), 200 mM HEPES pH 7.3, 20 mM MgCl2, 37°C, labelled compound

Row | Protein | Km [1] | kcat [1] | Km [2] | kcat [2]
1 | Z. mobilis Tgt ("wild type" Tgt = Tgt(Tyr106Phe)) (Zymomonas mobilis subsp. mobilis ZM4 = ATCC 31821; V233G/Y106F) (protein, recombinant from pET9d-ZM-Y106F in E. coli BL21(DE3)/pLysS, purified; homodimer; all variants including "wild type" carry Tyr106Phe) VEATAQETDRPRFSFSIAAREGKARTGTIEMKRGVIRTPAFMPVGTAATVKALKPETVRATGADIILGNTYHLMLRPGAERIAKLGGLHSFMGWDRPILTDSGGFQVMSLSSLTKQSEEGVTFKSHLDGSRHMLSPERSIEIQHLLGSDIVMAFDECTPYPATPSRAASSMERSMRWAKRSRDAFDSRKEQAENAALFGIQQGSVFENLRQQSADALAEIGFDGYAVGGLAGGEGQDEMFRVLDFSVPMLPDDKPHYLMGVGKPDDIVGAVERGIDMFDCVLPTRSGRNGQAFTWDGPINIRNARFSEDLTPLDSECHCAVCQKWSRAYIHHLIRAGEILGAMLMTEHNIAFYQQLMQKIRDSISEGRFSQFAQDFRARYFARNS | 0.6 ± 0.1 µM | 0.0063 ± 0.0002 s⁻¹ | 1.0 ± 0.2 µM | 0.0046 ± 0.0003 s⁻¹
2 | Z. mobilis Tgt ("wild type" Tgt = Tgt(Tyr106Phe)) (Zymomonas mobilis subsp. mobilis ZM4 = ATCC 31821; C158V/Y106F) (protein, recombinant from pET9d-ZM-Y106F in E. coli BL21(DE3)/pLysS, purified; homodimer; all variants including "wild type" carry Tyr106Phe) VEATAQETDRPRFSFSIAAREGKARTGTIEMKRGVIRTPAFMPVGTAATVKALKPETVRATGADIILGNTYHLMLRPGAERIAKLGGLHSFMGWDRPILTDSGGFQVMSLSSLTKQSEEGVTFKSHLDGSRHMLSPERSIEIQHLLGSDIVMAFDEVTPYPATPSRAASSMERSMRWAKRSRDAFDSRKEQAENAALFGIQQGSVFENLRQQSADALAEIGFDGYAVGGLAVGEGQDEMFRVLDFSVPMLPDDKPHYLMGVGKPDDIVGAVERGIDMFDCVLPTRSGRNGQAFTWDGPINIRNARFSEDLTPLDSECHCAVCQKWSRAYIHHLIRAGEILGAMLMTEHNIAFYQQLMQKIRDSISEGRFSQFAQDFRARYFARNS | 16.0 ± 2.4 µM | 0.035 ± 0.0008 s⁻¹ | 1.4 ± 0.2 µM | 0.0275 ± 0.0002 s⁻¹
3 | Z. mobilis Tgt ("wild type" Tgt = Tgt(Tyr106Phe)) (Zymomonas mobilis subsp. mobilis ZM4 = ATCC 31821; C158V/V233G/Y106F) (protein, recombinant from pET9d-ZM-Y106F in E. coli BL21(DE3)/pLysS, purified; homodimer; all variants including "wild type" carry Tyr106Phe) VEATAQETDRPRFSFSIAAREGKARTGTIEMKRGVIRTPAFMPVGTAATVKALKPETVRATGADIILGNTYHLMLRPGAERIAKLGGLHSFMGWDRPILTDSGGFQVMSLSSLTKQSEEGVTFKSHLDGSRHMLSPERSIEIQHLLGSDIVMAFDEVTPYPATPSRAASSMERSMRWAKRSRDAFDSRKEQAENAALFGIQQGSVFENLRQQSADALAEIGFDGYAVGGLAGGEGQDEMFRVLDFSVPMLPDDKPHYLMGVGKPDDIVGAVERGIDMFDCVLPTRSGRNGQAFTWDGPINIRNARFSEDLTPLDSECHCAVCQKWSRAYIHHLIRAGEILGAMLMTEHNIAFYQQLMQKIRDSISEGRFSQFAQDFRARYFARNS | 13.5 ± 3.1 µM | 0.001 ± 0.0003 s⁻¹ | 2.7 ± 0.3 µM | 0.0006 ± 0.0001 s⁻¹
4 | Z. mobilis Tgt ("wild type" Tgt = Tgt(Tyr106Phe)) (Zymomonas mobilis subsp. mobilis ZM4 = ATCC 31821; Y106F) (protein, recombinant from pET9d-ZM-Y106F in E. coli BL21(DE3)/pLysS, purified; homodimer; all variants including "wild type" carry Tyr106Phe) VEATAQETDRPRFSFSIAAREGKARTGTIEMKRGVIRTPAFMPVGTAATVKALKPETVRATGADIILGNTYHLMLRPGAERIAKLGGLHSFMGWDRPILTDSGGFQVMSLSSLTKQSEEGVTFKSHLDGSRHMLSPERSIEIQHLLGSDIVMAFDECTPYPATPSRAASSMERSMRWAKRSRDAFDSRKEQAENAALFGIQQGSVFENLRQQSADALAEIGFDGYAVGGLAVGEGQDEMFRVLDFSVPMLPDDKPHYLMGVGKPDDIVGAVERGIDMFDCVLPTRSGRNGQAFTWDGPINIRNARFSEDLTPLDSECHCAVCQKWSRAYIHHLIRAGEILGAMLMTEHNIAFYQQLMQKIRDSISEGRFSQFAQDFRARYFARNS | 0.9 ± 0.1 µM | 0.106 ± 0.0027 s⁻¹ | 1.2 ± 0.2 µM | 0.0558 ± 0.0001 s⁻¹
